# Experiment: GEN1046 in combination with docetaxel in metastatic NSCLC subjects, adverse effects
# Assay type: in vivo, human
# Method: Docetaxel was administered at a dose of 55 mg/m^2 or 75 mg/m^2 depending on the number of prior Dose Limiting Toxicities observed. The maximum tested dose of docetaxel was be 75 mg/m^2.
# Subjects with a histological or cytological diagnosis of non-squamous NSCLC must not have an EGFR-sensitizing mutation and/or ALK translocation/ROS1 rearrangement. EGFR sensitizing mutations are those mutations that are amenable to treatment with an approved TKI. Documentation of EGFR and ALK status should be available per local assessment.
substance,measurement,setting,value
"GEN1046: PD-L1×4-1BB bispecific antibody: PD-L1-547-FEAL combined with CD137-009-HC7LC2-FEAR (SEQ ID NOs: 1, 5, 21, 19; 8, 12, 22, 20)",Tolerability of the combination,GEN1046 100 mg with Docetaxel 55 or 75 mg/m^2,manageable and well tolerated
same,"Alopecia Grade 1, GEN1046-related",GEN1046 + 55 mg/m^2 Docetaxel,1
same,"Alopecia Grade 2, GEN1046-related",GEN1046 + 55 mg/m^2 Docetaxel,0
same,"Alopecia Grade 3, GEN1046-related",GEN1046 + 55 mg/m^2 Docetaxel,0
same,"Alopecia Grade 4, GEN1046-related",GEN1046 + 55 mg/m^2 Docetaxel,0
same,"Alopecia Grade 5, GEN1046-related",GEN1046 + 55 mg/m^2 Docetaxel,0
same,"Anemia Grade 1, GEN1046-related",GEN1046 + 55 mg/m^2 Docetaxel,0
same,"Anemia Grade 2, GEN1046-related",GEN1046 + 55 mg/m^2 Docetaxel,0
same,"Anemia Grade 3, GEN1046-related",GEN1046 + 55 mg/m^2 Docetaxel,3
same,"Anemia Grade 4, GEN1046-related",GEN1046 + 55 mg/m^2 Docetaxel,0
same,"Anemia Grade 5, GEN1046-related",GEN1046 + 55 mg/m^2 Docetaxel,0
same,"Blood alkaline phosphatase increase Grade 1, GEN1046-related",GEN1046 + 55 mg/m^2 Docetaxel,0
same,"Blood alkaline phosphatase increase Grade 2, GEN1046-related",GEN1046 + 55 mg/m^2 Docetaxel,1
same,"Blood alkaline phosphatase increase Grade 3, GEN1046-related",GEN1046 + 55 mg/m^2 Docetaxel,0
same,"Blood alkaline phosphatase increase Grade 4, GEN1046-related",GEN1046 + 55 mg/m^2 Docetaxel,0
same,"Blood alkaline phosphatase increase Grade 5, GEN1046-related",GEN1046 + 55 mg/m^2 Docetaxel,0
same,"Decreased appetite Grade 1, GEN1046-related",GEN1046 + 55 mg/m^2 Docetaxel,0
same,"Decreased appetite Grade 2, GEN1046-related",GEN1046 + 55 mg/m^2 Docetaxel,1
same,"Decreased appetite Grade 3, GEN1046-related",GEN1046 + 55 mg/m^2 Docetaxel,0
same,"Decreased appetite Grade 4, GEN1046-related",GEN1046 + 55 mg/m^2 Docetaxel,0
same,"Decreased appetite Grade 5, GEN1046-related",GEN1046 + 55 mg/m^2 Docetaxel,0
same,"Dyspnea Grade 1, GEN1046-related",GEN1046 + 55 mg/m^2 Docetaxel,0
same,"Dyspnea Grade 2, GEN1046-related",GEN1046 + 55 mg/m^2 Docetaxel,1
same,"Dyspnea Grade 3, GEN1046-related",GEN1046 + 55 mg/m^2 Docetaxel,0
same,"Dyspnea Grade 4, GEN1046-related",GEN1046 + 55 mg/m^2 Docetaxel,0
same,"Dyspnea Grade 5, GEN1046-related",GEN1046 + 55 mg/m^2 Docetaxel,0
same,"Fatigue Grade 1, GEN1046-related",GEN1046 + 55 mg/m^2 Docetaxel,0
same,"Fatigue Grade 2, GEN1046-related",GEN1046 + 55 mg/m^2 Docetaxel,2
same,"Fatigue Grade 3, GEN1046-related",GEN1046 + 55 mg/m^2 Docetaxel,1
same,"Fatigue Grade 4, GEN1046-related",GEN1046 + 55 mg/m^2 Docetaxel,0
same,"Fatigue Grade 5, GEN1046-related",GEN1046 + 55 mg/m^2 Docetaxel,0
same,"Hypokalemia Grade 1, GEN1046-related",GEN1046 + 55 mg/m^2 Docetaxel,0
same,"Hypokalemia Grade 2, GEN1046-related",GEN1046 + 55 mg/m^2 Docetaxel,1
same,"Hypokalemia Grade 3, GEN1046-related",GEN1046 + 55 mg/m^2 Docetaxel,0
same,"Hypokalemia Grade 4, GEN1046-related",GEN1046 + 55 mg/m^2 Docetaxel,0
same,"Hypokalemia Grade 5, GEN1046-related",GEN1046 + 55 mg/m^2 Docetaxel,0
same,"Hypomagnesaemia Grade 1, GEN1046-related",GEN1046 + 55 mg/m^2 Docetaxel,1
same,"Hypomagnesaemia Grade 2, GEN1046-related",GEN1046 + 55 mg/m^2 Docetaxel,0
same,"Hypomagnesaemia Grade 3, GEN1046-related",GEN1046 + 55 mg/m^2 Docetaxel,0
same,"Hypomagnesaemia Grade 4, GEN1046-related",GEN1046 + 55 mg/m^2 Docetaxel,0
same,"Hypomagnesaemia Grade 5, GEN1046-related",GEN1046 + 55 mg/m^2 Docetaxel,0
same,"Nausea Grade 1, GEN1046-related",GEN1046 + 55 mg/m^2 Docetaxel,1
same,"Nausea Grade 2, GEN1046-related",GEN1046 + 55 mg/m^2 Docetaxel,0
same,"Nausea Grade 3, GEN1046-related",GEN1046 + 55 mg/m^2 Docetaxel,0
same,"Nausea Grade 4, GEN1046-related",GEN1046 + 55 mg/m^2 Docetaxel,0
same,"Nausea Grade 5, GEN1046-related",GEN1046 + 55 mg/m^2 Docetaxel,0
same,"Neutrophil count decreased Grade 1, GEN1046-related",GEN1046 + 55 mg/m^2 Docetaxel,0
same,"Neutrophil count decreased Grade 2, GEN1046-related",GEN1046 + 55 mg/m^2 Docetaxel,0
same,"Neutrophil count decreased Grade 3, GEN1046-related",GEN1046 + 55 mg/m^2 Docetaxel,1
same,"Neutrophil count decreased Grade 4, GEN1046-related",GEN1046 + 55 mg/m^2 Docetaxel,0
same,"Neutrophil count decreased Grade 5, GEN1046-related",GEN1046 + 55 mg/m^2 Docetaxel,0
same,"Pyrexia Grade 1, GEN1046-related",GEN1046 + 55 mg/m^2 Docetaxel,1
same,"Pyrexia Grade 2, GEN1046-related",GEN1046 + 55 mg/m^2 Docetaxel,0
same,"Pyrexia Grade 3, GEN1046-related",GEN1046 + 55 mg/m^2 Docetaxel,0
same,"Pyrexia Grade 4, GEN1046-related",GEN1046 + 55 mg/m^2 Docetaxel,0
same,"Pyrexia Grade 5, GEN1046-related",GEN1046 + 55 mg/m^2 Docetaxel,0
same,"Sinus tachycardia Grade 1, GEN1046-related",GEN1046 + 55 mg/m^2 Docetaxel,0
same,"Sinus tachycardia Grade 2, GEN1046-related",GEN1046 + 55 mg/m^2 Docetaxel,1
same,"Sinus tachycardia Grade 3, GEN1046-related",GEN1046 + 55 mg/m^2 Docetaxel,0
same,"Sinus tachycardia Grade 4, GEN1046-related",GEN1046 + 55 mg/m^2 Docetaxel,0
same,"Sinus tachycardia Grade 5, GEN1046-related",GEN1046 + 55 mg/m^2 Docetaxel,0
same,"Total treated subjects with related TEAEs Grade 1, GEN1046-related",GEN1046 + 55 mg/m^2 Docetaxel,4
same,"Total treated subjects with related TEAEs Grade 2, GEN1046-related",GEN1046 + 55 mg/m^2 Docetaxel,4
same,"Total treated subjects with related TEAEs Grade 3, GEN1046-related",GEN1046 + 55 mg/m^2 Docetaxel,3
same,"Total treated subjects with related TEAEs Grade 4, GEN1046-related",GEN1046 + 55 mg/m^2 Docetaxel,0
same,"Total treated subjects with related TEAEs Grade 5, GEN1046-related",GEN1046 + 55 mg/m^2 Docetaxel,0
same,"Vaginal hemorrhage Grade 1, GEN1046-related",GEN1046 + 55 mg/m^2 Docetaxel,1
same,"Vaginal hemorrhage Grade 2, GEN1046-related",GEN1046 + 55 mg/m^2 Docetaxel,0
same,"Vaginal hemorrhage Grade 3, GEN1046-related",GEN1046 + 55 mg/m^2 Docetaxel,0
same,"Vaginal hemorrhage Grade 4, GEN1046-related",GEN1046 + 55 mg/m^2 Docetaxel,0
same,"Vaginal hemorrhage Grade 5, GEN1046-related",GEN1046 + 55 mg/m^2 Docetaxel,0
same,"Vomiting Grade 1, GEN1046-related",GEN1046 + 55 mg/m^2 Docetaxel,0
same,"Vomiting Grade 2, GEN1046-related",GEN1046 + 55 mg/m^2 Docetaxel,1
same,"Vomiting Grade 3, GEN1046-related",GEN1046 + 55 mg/m^2 Docetaxel,0
same,"Vomiting Grade 4, GEN1046-related",GEN1046 + 55 mg/m^2 Docetaxel,0
same,"Vomiting Grade 5, GEN1046-related",GEN1046 + 55 mg/m^2 Docetaxel,0
same,"Amylase increased Grade 1, GEN1046-related",GEN1046 + 75 mg/m^2 Docetaxel,1
same,"Amylase increased Grade 2, GEN1046-related",GEN1046 + 75 mg/m^2 Docetaxel,0
same,"Amylase increased Grade 3, GEN1046-related",GEN1046 + 75 mg/m^2 Docetaxel,0
same,"Amylase increased Grade 4, GEN1046-related",GEN1046 + 75 mg/m^2 Docetaxel,0
same,"Amylase increased Grade 5, GEN1046-related",GEN1046 + 75 mg/m^2 Docetaxel,0
same,"Anemia Grade 1, GEN1046-related",GEN1046 + 75 mg/m^2 Docetaxel,0
same,"Anemia Grade 2, GEN1046-related",GEN1046 + 75 mg/m^2 Docetaxel,1
same,"Anemia Grade 3, GEN1046-related",GEN1046 + 75 mg/m^2 Docetaxel,0
same,"Anemia Grade 4, GEN1046-related",GEN1046 + 75 mg/m^2 Docetaxel,0

# From US20240109972A1, “ANTIBODY AND TAXANE COMBINATION THERAPY” (Genmab A/S, priority 2020, published 2024)
